The values that follow come from the DeepSol protein solubility set.

A short description of this data set: soluble on expression in E. coli; label from the status in PepcDB or PDB records.
On to “MAGMFQDLLYLNLIGAVRAITAAQGIKIRISGEENVPESGGAVVVVNHTGYLDFIYAGYPFRKFRRYIRYMAKGDVFKHPVAGPLLREMRHIPVDRIDGTAAFDQAVDMLKKGELVGIFPEATISRSFEIKTLRPGAVRMAQAAGVPIIMVMVVGSQRVWTKGQKKNLIHPGSPIHMKVFPAWYPEGDANEATQELRRRMITGLEEVWSDYQAEEPIVPGALWVPARLGGGAPTFDEAQAEDEKVEQERRRVRVLTEEIAQLTERIKQATKAGASAVDAARHRVEDVLHGEVPAKADAGKALSVLKDTVDEFVEEVVSSAKEGKDRVMDAGEQLRRSVADLYGQAVTASQVNPVVVQATAQVSMLLDRLPQRKDAPKVELPRVLVLSVDGAVAAYPEVTLSPSVLSQVAALSQQHTVVLTTISGMDRVVALARQVAQESGADVCVSASAGAVAATVSDTDVSVLHECVVSDELRAAVQECVDSLGLDVEWKGAHHGVVSGLGADPDLWQELSQVVRVVPLPGEPDRCVIVSPEASVEAAVQTCVGDVWDEVLVCAADASEAGALARAGHRVAVVSAPVVVLREAAQWCDRPDKDGVINFLDKHFITPESV”, for which the “soluble on expression in E. coli” value is “not soluble”.
Under “MKTLVVALGGNALLQRGEALTAENQYRNIASAVPALARLARSYRLAIVHGNGPQVGLLALQNLAWKEVEPYPLDVLVAESQGMIGYMLAQSLSAQPQMPPVTTVLTRIEVSPDDPAFLQPEKFIGPVYQPEEQEALEAAYGWQMKRDGKYLRRVVASPQPRKILDSEAIELLLKEGHVVICSGGGGVPVTDDGAGSEAVIDKDLAAALLAEQINADGLVILTDADAVYENWGTPQQRAIRHATPDELAPFAKADGSMGPNVTAVSGYVRSRGKPAWIGALSRIEETLAGEAGTCISL” stands “not soluble”; under “TEDFRWKTTFNYSQNRNKVVELAPNYTSFVYGDPGFSMAYMMQIKEGGSLGDIYGNTFARDEQGKIKVSDEGKPISESGNKTYLGNCNPDFLLSWANTFTYKGFSLYFLIDMRKGGDVMSLTQATLDGRGVTKATAEARDRGYVEVDGTRFENVEGFYSVVGDRNGISERYMYSATNIRLRELSLSYSFPSTLLAKTKVFTGIDVSLVGRNLFFFYKDAPFDPDAILSVGNTNQGVDVFGMPTTRNIGFNVKFTF”, “not soluble”; under “MGSDKIHHHHHHMSNEQLADLTQPQRDRLAFVELRVRFIGEIRRQDLVTRFGIQSAAASRDLALYKELAPGNIDYDSKGKSYVLGPDFRPVFDFPPERVLSWLTQGFGDGEPMRLKAWVASESPSRLTHPDLDVLASVTRAIHQECPLGIEYHSISSGRTEREIVPFALIDNGLRWHVRAFDRKSQEFRDFVITRIKRPVLIRDAEVQSHERSDQDIQWTRIVELEMVPHPDQPRPEITEMDYGMVRGSLRMKLRAATAGYILRQWSVDCSPDHSLRGYEFRLWLKDHLALYGVKNAVLAPGYRSPDQNKGEQ”, “not soluble”.
As for “MPGIAIIGAQWGDEGKGKVVDVLAREADYVIRYQGGANAGHTVVAEGKVFKLNLLPSGVIHPHAVNVLGDGMVIDPFRFQEEVEGLRKEGFDPKILVSERAHLVLPHHKHVESRHNFVGTTGRGIGPAYSDRARRVGIRAGDLLDEATLRERVRRLLAEKPNSTREAGWDTEEKALADLHRMREILSPYIADTGSLLREAWRKGKRLLFEGAQATLLDLNYGTYPYVTSSHPTVGGILVGTGLSHKAITKVYGVAKAYTTRVGEGPFPTELQGELAHHLREKGGEYGTTTGRPRRVGWLDLVALRYACEVNGFDGLVLTKLDVLSGLEKVKVAVEYLDGARPGEASPEAVRYLELPGWGDLSHVKRREDLPANLLRYLELVEEHTGVPVVLFSTSPRREDTFGAVSWV”, the entry is “soluble”; as for “MATSKILLYYAFTPLSDPKAVQLWQRELCESLNLRGRILISTHGINGTVGGDIDDCKAYIKKTREYPGFNRMQFKWSEGGAEDFPKLSVKVRDEIVAFGAPDELKVDENGVVGGGVHLKPQQVNELVEARGDEVVFFDGRNAMEAQIGKFKDAVVPDVETTHDFIAEIESGKYDDLKDKPVVTYCTGGIRCEILSSLMINRGFKEVYQIDGGIVRYGEQFGNKGLWEGSLYVFDKRMHMEFGEDYKEVGHCIHCDTPTNKFEHCLNEDDCRELVLMCPDCFANVETRHCKRERCAAIAADFAEQGIDPLVTS”, “not soluble”.
